# B1: D8 Δ262 construct (amino acids 1–261, lacking Cys 262) (domain or fragment)
# chain: MPQQLSPINIETKKAISNARLKPLDIHYNESKPTTIQNTGKLVRINFKGGYISGGFLPNEYVLSSLHIYWGKEDDYGSNHLIDVYKYSGEINLVHWNKKKYSSYEEAKKHDDGLIIISIFLQVLDHKNVYFQKIVNQLDSIRSANTSAPFDSVFYLDNLLPSKLDYFTYLGTTINHSADAVWIIFPTPINIHSDQLSKFRTLLSSSNHDGKPHYITENYRNPYKLNDDTQVYYSGEIIRAATTSPARENYFMRWLSDLRET
# Biological target: the molecule itself
# Experiment: SEC-MALS
protein,measurement,value
B1,stoichiometry N,6

# Source: publication PMC4256255 (PLoS Pathogens, 2014)
